Measured values taken from patent US20160237143A1 (OSTERREICHISCHE AKADEMIE DER WISSENSCHAFTEN, published 2016).

How the values were obtained:
HPV 18 E7 protein = molecular target: T1, HPV 18 E7 protein (human papillomavirus type 18, UniProt P06788 1-105); test: confocal immunofluorescence on U-2OS cells overexpressing E7
T1 construct: also called E7 protein of HPV 18
T1 sequence: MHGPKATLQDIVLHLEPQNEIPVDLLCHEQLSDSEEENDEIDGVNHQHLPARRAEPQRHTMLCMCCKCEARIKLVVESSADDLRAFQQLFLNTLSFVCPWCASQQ

HPV 45 E7 protein = molecular target: T2, HPV 45 E7 protein (human papillomavirus type 45, UniProt P21736 1-106); test: as above
T2 construct: also called E7 protein of HPV 45
T2 sequence: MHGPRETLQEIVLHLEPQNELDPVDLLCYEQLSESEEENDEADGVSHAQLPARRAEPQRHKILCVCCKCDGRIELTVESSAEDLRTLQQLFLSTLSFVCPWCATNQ

[1] = molecular target: T3, HPV 16 E7 mutant C58G/C91G (human papillomavirus type 16, UniProt P03129 1-98); test: indirect immunofluorescence on transiently transfected U-2OS cells
T3 sequence: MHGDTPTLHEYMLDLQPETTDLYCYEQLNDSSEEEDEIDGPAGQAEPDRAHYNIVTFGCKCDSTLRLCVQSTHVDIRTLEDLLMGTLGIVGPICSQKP

HPV 16 E7 mutant C58G = molecular target: T4, HPV 16 E7 mutant C58G (human papillomavirus type 16, UniProt P03129 1-98); test: as above
T4 sequence: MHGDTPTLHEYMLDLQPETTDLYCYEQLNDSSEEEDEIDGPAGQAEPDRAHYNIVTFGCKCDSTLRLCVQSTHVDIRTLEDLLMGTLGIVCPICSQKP

HPV 16 E7 mutant C91G = molecular target: T5, HPV 16 E7 mutant C91G (human papillomavirus type 16, UniProt P03129 1-98); test: as above
T5 sequence: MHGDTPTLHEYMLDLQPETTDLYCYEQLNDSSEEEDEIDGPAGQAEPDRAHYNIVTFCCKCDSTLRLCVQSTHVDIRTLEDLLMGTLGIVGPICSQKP

[2] = molecular target: T6, HPV 16 E7 derived synthetic 13mer peptide 44 (amino acids 86 to 98) (human papillomavirus type 16); test: peptide microarray, anti-rabbit-Cy5
T6 construct: Immobilised on a peptide microarray
T6 peptide: TLGIVCPICSQKP

[3] = molecular target: T7, HPV 16 E7 derived synthetic 13mer peptide 43 (amino acids 85 to 97) (human papillomavirus type 16); test: peptide microarray, anti-rabbit-Cy5
T7 construct: Immobilised on a peptide microarray
T7 peptide: GTLGIVCPICSQK

HPV 11 E7 protein = molecular target: T8, HPV 11 E7 protein (human papillomavirus type 11, UniProt P04020 1-98); test: direct ELISA, coated recombinant E7, biotinylated antibody
T8 construct: also called low-risk HPV type 11 E7
T8 sequence: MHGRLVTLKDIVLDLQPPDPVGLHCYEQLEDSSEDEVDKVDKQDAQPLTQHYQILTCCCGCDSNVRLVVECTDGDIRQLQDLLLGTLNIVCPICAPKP

B1: monoclonal anti-HPV 16 E7 antibody of the present invention (rabbit monoclonal, hybridoma Klon 42-3-78, DSM ACC3034) (antibody, V domains shown)
VH: QSLEESGGRLVTPGGSLTLTCTVSGIDLSTYEISWVRQAPGKGLEWIGIIGTSANTVYASWAKGRFTISKSSTTVDLRVTSLTTEDTATYFCARAYDEYGIHAFHPWGPGTLVTVSS
VL: AQVLTQTPSPVSAAVGGTVTINCQASQSVYNAKNLAWYQQKPGQPPKLLIYQASTLASGVPSRFKGSGSGTQFTLTISGVQCDDAATYYCQGEFSCSSADCNVFGGGTEVVVKG
notes: Rabbit IgG purified from hybridoma supernatant on Protein G; used plain or biotinylated; also called monoclonal antibody against HPV 16 E7; RabMab
B1: no binding (tested: 25 µg/ml) (HPV 18 E7 protein); no binding (tested: 25 µg/ml) (HPV 45 E7 protein); no binding [1]. B1: no binding (HPV 16 E7 mutant C58G); no binding (HPV 16 E7 mutant C91G); binds [2]. B1: binds [3]; no binding (tested: 2.5 and 10 ng coated E7 protein) (HPV 11 E7 protein).
